According to patent US20260217833A1 (APTEVO RESEARCH AND DEVELOPMENT, published 2026):
Numbering of substitutions follows the chain as printed. Where two headings read alike, the source gives them in different places.

Columns and labels:
huPD-L1 ECD AFH = biological target: T1, huPD-L1 ECD AFH (human); experiment: SPR, binder captured on anti-human IgG, PD-L1 ECD injected, 1:1 fit
T1 construct: also called PDL01001; recombinant human PD-L1 ectodomain (ECD)

Cynomolgus CHOK1SV/CD40 = biological target: T2, Cynomolgus CHOK1SV/CD40; experiment: flow cytometry, CHOK1SV/cynomolgus CD40 cells
T2 construct: also called Cyno CD40 full-length; CD4001013
T2 receptor chain: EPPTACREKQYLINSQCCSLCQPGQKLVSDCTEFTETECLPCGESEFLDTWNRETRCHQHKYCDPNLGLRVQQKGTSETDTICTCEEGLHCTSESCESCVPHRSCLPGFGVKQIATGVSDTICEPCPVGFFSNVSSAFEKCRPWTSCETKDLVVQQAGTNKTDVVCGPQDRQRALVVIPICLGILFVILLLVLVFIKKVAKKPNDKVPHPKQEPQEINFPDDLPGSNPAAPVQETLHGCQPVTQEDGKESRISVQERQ

human CD40 full-length [1] = biological target: T3, human CD40 full-length (human, UniProt P25942 21-277); experiment: flow cytometry, CHOK1SV/human CD40 cells
T3 construct: Also used for CD40 of Daudi cells, of CD40-expressing HEK293 cells and of the BPS CD40/NFkB HEK293 reporter cells where the row says so; also called CD4001012; CHOK1SV/CD40

Human PD-L1 full-length [2] = biological target: T4, Human PD-L1 full-length (human, UniProt Q9NZQ7 19-290); experiment: flow cytometry, CHOK1SV/human PD-L1 cells
T4 construct: also called PDL01021; CHOK1SV/huPDL1

Cyno PD-L1 full-length = biological target: T5, Cyno PD-L1 full-length (cynomolgus, UniProt Q9NZQ7 19-290 (human entry)); experiment: MSD cell binding, CHOK1SV/cynomolgus PD-L1 cells; x axis without printed unit
T5 construct: also called PDL01022; CHOK1SV/cynoPDL1

Human PD-L1 full-length [3] = biological target: T4, Human PD-L1 full-length; experiment: MSD cell binding, CHOK1SV/human PD-L1 cells; x axis without printed unit
Human PD-L1 full-length [4] = biological target: T4, Human PD-L1 full-length; experiment: flow cytometry, CHOK1SV/human PD-L1 cells; remark: listed apart in the source
human CD40 full-length [5] = biological target: T3, human CD40 full-length; experiment: flow cytometry, CHOK1SV/human CD40 cells; remark: listed apart in the source

T4 sequence (Q9NZQ7 19-290): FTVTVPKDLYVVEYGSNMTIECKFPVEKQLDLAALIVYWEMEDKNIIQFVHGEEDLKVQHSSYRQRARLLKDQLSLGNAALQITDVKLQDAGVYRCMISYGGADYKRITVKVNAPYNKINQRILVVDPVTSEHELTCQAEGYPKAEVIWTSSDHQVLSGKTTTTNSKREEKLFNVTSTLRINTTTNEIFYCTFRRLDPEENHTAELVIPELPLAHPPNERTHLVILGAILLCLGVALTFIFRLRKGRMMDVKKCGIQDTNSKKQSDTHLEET
T1 sequence (chain, as listed by the source limits assumed): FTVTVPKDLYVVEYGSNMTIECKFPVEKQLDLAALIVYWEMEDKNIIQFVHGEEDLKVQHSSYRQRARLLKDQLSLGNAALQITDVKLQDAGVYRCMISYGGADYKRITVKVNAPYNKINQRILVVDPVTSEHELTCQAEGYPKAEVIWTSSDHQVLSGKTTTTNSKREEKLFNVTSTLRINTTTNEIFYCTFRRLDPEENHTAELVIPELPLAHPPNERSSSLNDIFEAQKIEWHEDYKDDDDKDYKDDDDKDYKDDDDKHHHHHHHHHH
T5 sequence (Q9NZQ7 other isoform, or with tags, fused parts or gaps): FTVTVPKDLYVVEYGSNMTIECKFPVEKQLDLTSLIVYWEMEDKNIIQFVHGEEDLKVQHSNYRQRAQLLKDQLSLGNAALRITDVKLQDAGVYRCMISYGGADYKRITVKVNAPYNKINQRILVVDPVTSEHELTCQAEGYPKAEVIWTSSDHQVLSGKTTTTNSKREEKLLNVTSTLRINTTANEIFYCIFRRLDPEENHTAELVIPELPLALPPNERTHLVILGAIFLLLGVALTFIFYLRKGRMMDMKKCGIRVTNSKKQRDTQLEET

B1: PDL01152 (Fc fusion)
chain: DIQMTQSPSSLSASVGDRVTITCRASQDINKFLSWYQQKPGKAPKLLIHYTSSLQSGVPSRFSGSGSGTDFTLTISSLQPEDFATYYCLQYDNLYTFGQGTKLEIKGGGGSGGGGSGGGGSGGGGSEVQLVESGGGLVQPGGSLRLSCAASGFTFSDYGMAWVRQAPGKGLEWVSFITSLAYIIYYADSVKGRFTISRDNAKNSLYLQMNSLRAEDTAVYYCARNYGSSPYYFDYWGQGTLVTVSS
notes: scFv (VL-VH); also called Humanized 5F9 anti-PD-L1 scFv; not shown: wildtype IgG1 Fc region
- Kd (huPD-L1 ECD AFH): 1.1 nM
- koff (huPD-L1 ECD AFH): 0.0012 s⁻¹
- kon (huPD-L1 ECD AFH): 1.1e+06 M⁻¹ s⁻¹

B2: PC401128 (bispecific antibody)
scFv-Fc-scFv chain: DIQMTQSPSSLSASVGDRVTITCRASQDINKFLSWYQQKPGKAPKLLIHYTSSLQSGVPSRFSGSGSGTDFTLTISSLQPEDFATYYCLQYDNLYTFGQGTKLEIKGGGGSGGGGSGGGGSGGGGSEVQLVESGGGLVQPGGSLRLSCAASGFTFSDYGMAWVRQAPGKGLEWVSFITSLAYIIYYADSVKGRFTISRDNAKNSLYLQMNSLRAEDTAVYYCARNYGSSPYYFDYWGQGTLVTVSSEPKSSDKTHTCPPCPAPPAAAPSVFLFPPKPKDTLMISRTPEVTCVVVDVSHEDPEVKFNWYVDGVEVHNAKTKPREEQYNSTYRVVSVLTVLHQDWLNGKEYKCAVSNKALPAPIEKTISKAKGQPREPQVYTLPPSRDELTKNQVSLTCLVKGFYPSDIAVEWESNGQPENNYKTTPPVLDSDGSFFLYSKLTVDKSRWQQGNVFSCSVMHEALHNHYTQKSLSLSPGGGGSPSDIQMTQSPSSVSASVGDRVTITCRASQSLTFSVNQKNYLAWYQQKPGKAPKLLIYWASSLQSGVPSRFSGSGSGTDFTLTISSLQPEDFATYYCQHYYSYPWTFGQGTKVEIKGGGGSGGGGSGGGGSGGGGSQVQLVQSGAEVKKPGSSVKVSCKASGYTFSTSWIEWIRQAPGQGLEWMGSILPGSGSTNYAQKFQGRVTITADTSTSTAYMELSSLRSEDTAVYYCARGDDGSYVRWYFDHWGQGTLVTVSS
notes: also called L-Leu30Thr
- binding result (Cynomolgus CHOK1SV/CD40): binds
- binding result (human CD40 full-length [1]): binds
- binding result (Human PD-L1 full-length [2]): binds

B3: PDL01034 (5F9HL x human IgG1 WT Fc) (Fc fusion)
chain: EVKLVESGGGLVQPGGSRKLSCAASGFTFSDYGMAWVRQAPGKGPEWVAFITSLAYIIFYSDTVTGRFTISRENAKNTLYLEMSSLRSEDTAVYYCARNYGSSPYYFDYWGQGTTLTVSSGGGGSGGGGSGGGGSGGGGSDIQMTQSPSSLSTSLGGKVTITCKASQDINKFISWYQHKPGKGPRLLIHYTSSLQPGIPSRFSGSGSGRDYSFSISNLEPEDIATYYCLQYDNLYTFGGGTKLEIK
notes: Murine anti-PD-L1 scFv (VH-VL) on human IgG1 wild-type Fc; also called PDL01034 (Parent); 5F9 clone PDL01034; not shown: human IgG1 WT Fc
- binding result (Cyno PD-L1 full-length): binds
- binding result (Human PD-L1 full-length [3]): binds
- Kd (huPD-L1 ECD AFH): 0.2 nM
- koff (huPD-L1 ECD AFH): 0.00024 s⁻¹
- kon (huPD-L1 ECD AFH): 1.4e+06 M⁻¹ s⁻¹

B4: CD4001068 (bispecific antibody)
PDL_5F9 x Fc-Knob: EVQLVESGGGLVKPGGSLRLSCAASGFTFSDYGMAWVRQAPGKGLEWVAFITSLAYIIYYADSVKGRFTISRDNAKNSLYLQMNSLRAEDTAVYYCARNYGSSPYYFDYWGQGTLVTVSSGGGGSGGGGSGGGGSGGGGSDIQMTQSPSSLSASVGDRVTITCRASQDINKFLSWYQQKPGKAPKLLIHYTSSLQPGVPSRFSGSGSGTDFTLTISSLQPEDFATYYCLQYDNLYTFGQGTKLEIKEPKSSDKTHTCPPCPAPPAAAPSVFLFPPKPKDTLMISRTPEVTCVVVDVSHEDPEVKFNWYVDGVEVHNAKTKPREEQYNSTYRVVSVLTVLHQDWLNGKEYKCAVSNKALPAPIEKTISKAKGQPREPQVYTLPPSRDELTKNQVSLWCLVKGFYPSDIAVEWESNGQPENNYKTTPPVLDSDGSFFLYSKLTVDKSRWQQGNVFSCSVMHEALHNHYTQKSLSLSPG
CD40_5B9 x Fc-Hole: DVVMTQTPLSLPVSLGDQASISCRSSQSLVHYNGYTYLHWYLQKPGQSPKLLIYKVSNRFSGVPDRFSGSGSGTDFTLKISRVEAEDLGVYFCSQTTHVPLTFGAGTKLELRGGGGSGGGGSGGGGSGGGGSEVMLVESGGGLVKPGGSLKLSCAASGFTFSSYAMSWVRQTPERRLEWVASISSAGTYIYYPDSVKGRFTISRDNAKNILYLQMNSLRSEDTAMYYCARHGNGYDPLWYFDVWGAGTTVTVSSEPKSSDKTHTCPPCPAPPAAAPSVFLFPPKPKDTLMISRTPEVTCVVVDVSHEDPEVKFNWYVDGVEVHNAKTKPREEQYNSTYRVVSVLTVLHQDWLNGKEYKCAVSNKALPAPIEKTISKAKGQPREPQVYTLPPSRDELTKNQVSLSCAVKGFYPSDIAVEWESNGQPENNYKTTPPVLDSDGSFFLVSKLTVDKSRWQQGNVFSCSVMHEALHNRFTQKSLSLSPG
- binding result (Human PD-L1 full-length [4]): binds
- EC50 (read off the curve) (human CD40 full-length [5]): ~5 nM

B5: CD4001077 (bispecific antibody)
PDL_5F9 x Fc-Knob: B4 PDL_5F9 x Fc-Knob
PDL_5F9 x Fc-Hole x CD40_5B9: EVQLVESGGGLVKPGGSLRLSCAASGFTFSDYGMAWVRQAPGKGLEWVAFITSLAYIIYYADSVKGRFTISRDNAKNSLYLQMNSLRAEDTAVYYCARNYGSSPYYFDYWGQGTLVTVSSGGGGSGGGGSGGGGSGGGGSDIQMTQSPSSLSASVGDRVTITCRASQDINKFLSWYQQKPGKAPKLLIHYTSSLQPGVPSRFSGSGSGTDFTLTISSLQPEDFATYYCLQYDNLYTFGQGTKLEIKEPKSSDKTHTCPPCPAPPAAAPSVFLFPPKPKDTLMISRTPEVTCVVVDVSHEDPEVKFNWYVDGVEVHNAKTKPREEQYNSTYRVVSVLTVLHQDWLNGKEYKCAVSNKALPAPIEKTISKAKGQPREPQVYTLPPSRDELTKNQVSLSCAVKGFYPSDIAVEWESNGQPENNYKTTPPVLDSDGSFFLVSKLTVDKSRWQQGNVFSCSVMHEALHNRFTQKSLSLSPGGGGSPSDVVMTQTPLSLPVSLGDQASISCRSSQSLVHYNGYTYLHWYLQKPGQSPKLLIYKVSNRFSGVPDRFSGSGSGTDFTLKISRVEAEDLGVYFCSQTTHVPLTFGAGTKLELRGGGGSGGGGSGGGGSGGGGSEVMLVESGGGLVKPGGSLKLSCAASGFTFSSYAMSWVRQTPERRLEWVASISSAGTYIYYPDSVKGRFTISRDNAKNILYLQMNSLRSEDTAMYYCARHGNGYDPLWYFDVWGAGTTVTVSS
- binding result (Human PD-L1 full-length [4]): binds
- binding result (human CD40 full-length [5]): binds

B6: CD4001074 (bispecific antibody)
CD40_5B9 x Fc-Knob: B4 CD40_5B9 x Fc-Hole with S404W, A406L, V445Y, R473H, F474Y
CD40_5B9 x Fc-Hole x PDL_5F9: DVVMTQTPLSLPVSLGDQASISCRSSQSLVHYNGYTYLHWYLQKPGQSPKLLIYKVSNRFSGVPDRFSGSGSGTDFTLKISRVEAEDLGVYFCSQTTHVPLTFGAGTKLELRGGGGSGGGGSGGGGSGGGGSEVMLVESGGGLVKPGGSLKLSCAASGFTFSSYAMSWVRQTPERRLEWVASISSAGTYIYYPDSVKGRFTISRDNAKNILYLQMNSLRSEDTAMYYCARHGNGYDPLWYFDVWGAGTTVTVSSEPKSSDKTHTCPPCPAPPAAAPSVFLFPPKPKDTLMISRTPEVTCVVVDVSHEDPEVKFNWYVDGVEVHNAKTKPREEQYNSTYRVVSVLTVLHQDWLNGKEYKCAVSNKALPAPIEKTISKAKGQPREPQVYTLPPSRDELTKNQVSLSCAVKGFYPSDIAVEWESNGQPENNYKTTPPVLDSDGSFFLVSKLTVDKSRWQQGNVFSCSVMHEALHNRFTQKSLSLSPGGGGSPSEVQLVESGGGLVKPGGSLRLSCAASGFTFSDYGMAWVRQAPGKGLEWVAFITSLAYIIYYADSVKGRFTISRDNAKNSLYLQMNSLRAEDTAVYYCARNYGSSPYYFDYWGQGTLVTVSSGGGGSGGGGSGGGGSGGGGSDIQMTQSPSSLSASVGDRVTITCRASQDINKFLSWYQQKPGKAPKLLIHYTSSLQPGVPSRFSGSGSGTDFTLTISSLQPEDFATYYCLQYDNLYTFGQGTKLEIK
- binding result (Human PD-L1 full-length [4]): binds
- EC50 (read off the curve) (human CD40 full-length [5]): ~2 nM

B7: CD4001080 (bispecific antibody)
Fc-knob x CD40_5B9: EPKSSDKTHTCPPCPAPPAAAPSVFLFPPKPKDTLMISRTPEVTCVVVDVSHEDPEVKFNWYVDGVEVHNAKTKPREEQYNSTYRVVSVLTVLHQDWLNGKEYKCAVSNKALPAPIEKTISKAKGQPREPQVYTLPPSRDELTKNQVSLWCLVKGFYPSDIAVEWESNGQPENNYKTTPPVLDSDGSFFLYSKLTVDKSRWQQGNVFSCSVMHEALHNHYTQKSLSLSPGGGGSPSDVVMTQTPLSLPVSLGDQASISCRSSQSLVHYNGYTYLHWYLQKPGQSPKLLIYKVSNRFSGVPDRFSGSGSGTDFTLKISRVEAEDLGVYFCSQTTHVPLTFGAGTKLELRGGGGSGGGGSGGGGSGGGGSEVMLVESGGGLVKPGGSLKLSCAASGFTFSSYAMSWVRQTPERRLEWVASISSAGTYIYYPDSVKGRFTISRDNAKNILYLQMNSLRSEDTAMYYCARHGNGYDPLWYFDVWGAGTTVTVSS
PDL_5F9 x Fc-Hole x CD40_5B9: B5 PDL_5F9 x Fc-Hole x CD40_5B9
- binding result (Human PD-L1 full-length [4]): binds
- binding result (human CD40 full-length [5]): binds
